Reference: patent publication US10618965 (dated 2020)
Numbering of substitutions follows the chain as printed. Blank lines part the entries; values can stand above or below the binder they belong to.

Legend:
Assay in all cases: SPR, pH 7.0
mouse FcRn = biological target: T1, mouse FcRn (mouse, UniProt Q61559)
T1 chain 1: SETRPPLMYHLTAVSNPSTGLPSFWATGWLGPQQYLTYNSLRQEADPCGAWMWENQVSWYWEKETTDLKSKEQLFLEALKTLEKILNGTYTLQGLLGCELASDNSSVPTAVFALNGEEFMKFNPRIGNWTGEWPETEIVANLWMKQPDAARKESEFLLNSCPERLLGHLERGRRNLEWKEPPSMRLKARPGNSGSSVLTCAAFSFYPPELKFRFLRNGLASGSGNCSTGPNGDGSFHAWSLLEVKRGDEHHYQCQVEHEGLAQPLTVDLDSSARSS
T1 chain 2: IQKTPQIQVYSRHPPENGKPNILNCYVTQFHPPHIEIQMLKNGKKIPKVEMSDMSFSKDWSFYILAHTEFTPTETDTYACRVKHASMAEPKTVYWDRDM

[1] = biological target: human FcRn (with beta2-microglobulin) (human)
[2] = biological target: human FcRn (with beta2-microglobulin) (human); remark: listed apart in the source

binding result (mouse FcRn): no binding
B1: mIgG1 (antibody)
chain 1: DVQLQESGPVLVKPSQSLSLTCTVTGYSITSDHAWSWIRQFPGNKLEWMGYISYSGITTYNPSLKSRISITRDTSKNQFFLQLNSVTTGDTSTYYCARSLARTTAMDYWGQGTSVTVSSAKTTPPSVYPLAPGSAAQTNSMVTLGCLVKGYFPEPVTVTWNSGSLSSGVHTFPAVLQSDLYTLSSSVTVPSSTWPSETVTCNVAHPASSTKVDKKIVPRDCGCKPCICTVPEVSSVFIFPPKPKDVLTITLTPKVTCVVVDISKDDPEVQFSWFVDDVEVHTAQTQPREEQFNSTFRSVSELPIMHQDWLNGKEFKCRVNSAAFPAPIEKTISKTKGRPKAPQVYTIPPPKEQMAKDKVSLTCMITDFFPEDITVEWQWNGQPAENYKNTQPIMDTDGSYFVYSKLNVQKSNWEAGNTFTCSVLHEGLHNHHTEKSLSHSPGK
chain 2: not shown

binding result [1]: no binding
B2: IgG2 (antibody)
chain 1: QVQLQESGPGLVKPSETLSLTCAVSGHSISHDHAWSWVRQPPGEGLEWIGFISYSGITNYNPSLQGRVTISRDNSKNTLYLQMNSLRAEDTAVYYCARSLARTTAMDYWGEGTLVTVSSASTKGPSVFPLAPCSRSTSESTAALGCLVKDYFPEPVTVSWNSGALTSGVHTFPAVLQSSGLYSLSSVVTVPSSNFGTQTYTCNVDHKPSNTKVDKTVERKCCVECPPCPAPPVAGPSVFLFPPKPKDTLMISRTPEVTCVVVDVSHEDPEVQFNWYVDGVEVHNAKTKPREEQFNSTFRVVSVLTVVHQDWLNGKEYKCKVSNKGLPAPIEKTISKTKGQPREPQVYTLPPSREEMTKNQVSLTCLVKGFYPSDIAVEWESNGQPENNYKTTPPMLDSDGSFFLYSKLTVDKSRWQQGNVFSCSVMHEALHNHYTQKSLSLSP
chain 2: not shown

Kd [2]: 140 nM
B3: IgG2-F939 (antibody)
chain 1: B2 chain 1 with A234R, S237K, M250Y, N432Y, Y434V
chain 2: not shown
